Measured values taken from patent US20240101663A1.

How the values were obtained:
[1] = molecular target: T1, CCDC112 recombinant protein (coiled-coil domain-containing protein 112) (human) (UniProt Q8NEF3); assay: ELISA, coated CCDC112, LILRB2-hFc, 0 ug/mL CCDC112 antibody; number over the bar
T1 sequence: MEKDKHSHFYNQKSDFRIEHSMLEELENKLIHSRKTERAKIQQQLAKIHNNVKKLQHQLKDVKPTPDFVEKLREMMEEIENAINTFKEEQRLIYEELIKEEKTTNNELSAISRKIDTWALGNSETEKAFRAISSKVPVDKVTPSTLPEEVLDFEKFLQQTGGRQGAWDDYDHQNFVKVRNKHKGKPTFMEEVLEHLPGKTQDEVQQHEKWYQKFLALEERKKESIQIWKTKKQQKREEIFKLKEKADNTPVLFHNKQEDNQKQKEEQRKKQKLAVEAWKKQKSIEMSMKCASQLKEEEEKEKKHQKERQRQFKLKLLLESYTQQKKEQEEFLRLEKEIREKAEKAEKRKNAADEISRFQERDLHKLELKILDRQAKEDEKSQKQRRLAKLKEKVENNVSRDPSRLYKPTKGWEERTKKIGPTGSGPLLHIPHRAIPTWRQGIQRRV

[2] = molecular target: CCDC112 on HCT116 tumor cells (including HCT116 cells stably overexpressing CCDC112) (human) (UniProt Q8NEF3); assay: flow cytometry on HCT116 cells overexpressing CCDC112; ambiguous fit of a flat control curve (see non_binding); table gives no unit, unit from the x axis

LILRB2-hFc (LILRB2 extracellular region protein fragment labeled with hFc), sequence (Q8N423 22-460): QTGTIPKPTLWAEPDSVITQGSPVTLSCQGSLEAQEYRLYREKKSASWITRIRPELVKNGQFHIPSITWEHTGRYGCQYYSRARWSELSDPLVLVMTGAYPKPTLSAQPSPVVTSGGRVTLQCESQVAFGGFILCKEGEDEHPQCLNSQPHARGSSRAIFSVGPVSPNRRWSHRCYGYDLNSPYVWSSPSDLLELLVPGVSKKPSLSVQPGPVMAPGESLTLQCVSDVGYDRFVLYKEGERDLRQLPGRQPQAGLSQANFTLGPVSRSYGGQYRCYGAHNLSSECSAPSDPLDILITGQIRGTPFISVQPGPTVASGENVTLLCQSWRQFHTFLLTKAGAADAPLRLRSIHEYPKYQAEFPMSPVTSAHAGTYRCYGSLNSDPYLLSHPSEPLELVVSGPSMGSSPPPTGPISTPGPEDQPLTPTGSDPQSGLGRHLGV

An OD450 [1] of 1.58 OD450 was found for “LILRB2-hFc (LILRB2 extracellular region protein fragment labeled with hFc) (from UniProt Q8N423 22-460) (Fc fusion)” in this work.
An EC50 [2] of 0.0449 µM was found for mIgG1 (antibody) in this work.
